Reference: article PMC8036718, “Two Be or Not Two Be: The Nuclear Autoantigen La/SS-B Is Able to Form Dimers and Oligomers in a Redox Dependent Manner” (International Journal of Molecular Sciences, 2021)

T1: full-length human La protein (La 1-408) (human, UniProt P05455 1-408)
T1 construct: Cloned into pET28b; also called La/SS-B; wild-type La protein
T1 sequence (looked up): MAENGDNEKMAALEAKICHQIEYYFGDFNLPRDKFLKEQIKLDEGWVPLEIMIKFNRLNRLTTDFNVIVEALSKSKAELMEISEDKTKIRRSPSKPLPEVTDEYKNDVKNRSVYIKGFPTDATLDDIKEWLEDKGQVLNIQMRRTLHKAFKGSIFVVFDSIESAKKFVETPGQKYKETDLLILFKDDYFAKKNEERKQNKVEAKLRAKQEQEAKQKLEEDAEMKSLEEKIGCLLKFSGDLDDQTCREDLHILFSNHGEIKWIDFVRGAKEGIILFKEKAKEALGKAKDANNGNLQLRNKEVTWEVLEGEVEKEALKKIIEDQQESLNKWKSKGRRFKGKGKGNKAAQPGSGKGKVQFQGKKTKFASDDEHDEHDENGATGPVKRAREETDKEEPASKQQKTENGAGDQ

B1: LaC, C-terminal La fragment aa194-408 (domain or fragment, human, UniProt P05455 194-408, looked up)
chain: EERKQNKVEAKLRAKQEQEAKQKLEEDAEMKSLEEKIGCLLKFSGDLDDQTCREDLHILFSNHGEIKWIDFVRGAKEGIILFKEKAKEALGKAKDANNGNLQLRNKEVTWEVLEGEVEKEALKKIIEDQQESLNKWKSKGRRFKGKGKGNKAAQPGSGKGKVQFQGKKTKFASDDEHDEHDENGATGPVKRAREETDKEEPASKQQKTENGAGDQ

Assays:
[1] = target: T1, full-length human La protein (La 1-408); test: far-Western, overlay or dot blot; His-tagged La fragments separated by SDS-PAGE and blotted; after blocking the membrane was incubated with unlabeled full-length La protein (or LaN); bound probe detected with the anti-La mAb SW5 (Figure 5C also with 5B9); details: both partners purified
[2] = target: the molecule itself; test: non-reducing SDS-PAGE and immunoblotting; purified La proteins as isolated (untreated) or treated with 2 mM CuSO4 (oxidized), sample buffer without ß-mercaptoethanol; blots with anti-La mAb SW5 or 7B6; shows only species held by disulfide bridges
[3] = target: B1; test: far-Western, overlay or dot blot; His-tagged La fragments separated by SDS-PAGE and blotted; after blocking the membrane was incubated with unlabeled full-length La protein (or LaN); bound probe detected with the anti-La mAb SW5 (Figure 5C also with 5B9); details: both partners purified
[4] = target: T1, full-length human La protein (La 1-408); test: SPR; full-length human La protein (La1-408) covalently linked to the sensor chip; BSA-coupled chip as control; La 1-408 or deletion mutants as analytes; details: both partners purified

binding result [4] | Binder | other results
 | B1 | binding result [1]: binds
 | mono cysteine mutant of La protein (La_C18A) (natural protein, human, UniProt P05455 1-408, looked up, La protein, human, with Cys18 changed to alanine; Runs as 50 kDa La protein) MAENGDNEKMAALEAKIAHQIEYYFGDFNLPRDKFLKEQIKLDEGWVPLEIMIKFNRLNRLTTDFNVIVEALSKSKAELMEISEDKTKIRRSPSKPLPEVTDEYKNDVKNRSVYIKGFPTDATLDDIKEWLEDKGQVLNIQMRRTLHKAFKGSIFVVFDSIESAKKFVETPGQKYKETDLLILFKDDYFAKKNEERKQNKVEAKLRAKQEQEAKQKLEEDAEMKSLEEKIGCLLKFSGDLDDQTCREDLHILFSNHGEIKWIDFVRGAKEGIILFKEKAKEALGKAKDANNGNLQLRNKEVTWEVLEGEVEKEALKKIIEDQQESLNKWKSKGRRFKGKGKGNKAAQPGSGKGKVQFQGKKTKFASDDEHDEHDENGATGPVKRAREETDKEEPASKQQKTENGAGDQ | binding result [2]: binds
 | double cysteine mutant of La protein (La_C232A_C245A) (natural protein, human, UniProt P05455 1-408, looked up, La protein, human, with Cys232 and Cys245 changed to alanine) MAENGDNEKMAALEAKICHQIEYYFGDFNLPRDKFLKEQIKLDEGWVPLEIMIKFNRLNRLTTDFNVIVEALSKSKAELMEISEDKTKIRRSPSKPLPEVTDEYKNDVKNRSVYIKGFPTDATLDDIKEWLEDKGQVLNIQMRRTLHKAFKGSIFVVFDSIESAKKFVETPGQKYKETDLLILFKDDYFAKKNEERKQNKVEAKLRAKQEQEAKQKLEEDAEMKSLEEKIGALLKFSGDLDDQTAREDLHILFSNHGEIKWIDFVRGAKEGIILFKEKAKEALGKAKDANNGNLQLRNKEVTWEVLEGEVEKEALKKIIEDQQESLNKWKSKGRRFKGKGKGNKAAQPGSGKGKVQFQGKKTKFASDDEHDEHDENGATGPVKRAREETDKEEPASKQQKTENGAGDQ | stoichiometry N [2]: 2
 | LaN, C-terminally truncated La fragment aa1-192 (domain or fragment, human, UniProt P05455 1-192, looked up, La protein, human, residues 1-192 (La motif plus RRM1 domain); also called La 1-192) MAENGDNEKMAALEAKICHQIEYYFGDFNLPRDKFLKEQIKLDEGWVPLEIMIKFNRLNRLTTDFNVIVEALSKSKAELMEISEDKTKIRRSPSKPLPEVTDEYKNDVKNRSVYIKGFPTDATLDDIKEWLEDKGQVLNIQMRRTLHKAFKGSIFVVFDSIESAKKFVETPGQKYKETDLLILFKDDYFAKK | binding result [3]: binds
binds | La 1-371 (domain or fragment, human, UniProt P05455 1-371, looked up, La protein, human, residues 1-371 (holds the Dim domain)) MAENGDNEKMAALEAKICHQIEYYFGDFNLPRDKFLKEQIKLDEGWVPLEIMIKFNRLNRLTTDFNVIVEALSKSKAELMEISEDKTKIRRSPSKPLPEVTDEYKNDVKNRSVYIKGFPTDATLDDIKEWLEDKGQVLNIQMRRTLHKAFKGSIFVVFDSIESAKKFVETPGQKYKETDLLILFKDDYFAKKNEERKQNKVEAKLRAKQEQEAKQKLEEDAEMKSLEEKIGCLLKFSGDLDDQTCREDLHILFSNHGEIKWIDFVRGAKEGIILFKEKAKEALGKAKDANNGNLQLRNKEVTWEVLEGEVEKEALKKIIEDQQESLNKWKSKGRRFKGKGKGNKAAQPGSGKGKVQFQGKKTKFASDDEHD | 
binds | La 239-408 (domain or fragment, human, UniProt P05455 239-408, looked up) DLDDQTCREDLHILFSNHGEIKWIDFVRGAKEGIILFKEKAKEALGKAKDANNGNLQLRNKEVTWEVLEGEVEKEALKKIIEDQQESLNKWKSKGRRFKGKGKGNKAAQPGSGKGKVQFQGKKTKFASDDEHDEHDENGATGPVKRAREETDKEEPASKQQKTENGAGDQ | 
binds | La 278-408 (domain or fragment, human, UniProt P05455 278-408, looked up) KAKEALGKAKDANNGNLQLRNKEVTWEVLEGEVEKEALKKIIEDQQESLNKWKSKGRRFKGKGKGNKAAQPGSGKGKVQFQGKKTKFASDDEHDEHDENGATGPVKRAREETDKEEPASKQQKTENGAGDQ | 
binds | La 1-245 (domain or fragment, human, UniProt P05455 1-245, looked up, La protein, human, residues 1-245 (lacks the Dim domain)) MAENGDNEKMAALEAKICHQIEYYFGDFNLPRDKFLKEQIKLDEGWVPLEIMIKFNRLNRLTTDFNVIVEALSKSKAELMEISEDKTKIRRSPSKPLPEVTDEYKNDVKNRSVYIKGFPTDATLDDIKEWLEDKGQVLNIQMRRTLHKAFKGSIFVVFDSIESAKKFVETPGQKYKETDLLILFKDDYFAKKNEERKQNKVEAKLRAKQEQEAKQKLEEDAEMKSLEEKIGCLLKFSGDLDDQTC | 
